The Immune Epitope Database (IEDB)

These sequences were tested against HLA-B*54:01 (assay: IEDB peptide-MHC binding, purified MHC/competitive/radioactivity; ≥ and ≤ were set here for values at or beyond the usual limits of such assays). Settings: source organism: Homo sapiens.

In order of rising IC50:
1. YPVYQPVGP  1.7 nM
2. FVEILIPVA  12.2 nM
3. FPKETFEGP  16.4 nM
4. SAPVNFISA  16.6 nM

What follows are sequences tested against HLA-A*01:01 in the same assay as above. Settings: source organism: Homo sapiens.

In order of rising IC50:
1. FLWPEAFLY  1.3 nM
2. YVPEHWEYY  11.1 nM
3. KLDLLEQEY  70.6 nM
4. DTEFPNFKY  80.8 nM
5. ATDGKVLLW  191 nM

Each sequence was assayed against HLA-A*29:02 in the same assay as above. Settings: source organism: Homo sapiens.

In order of falling IC50:
1. GLPDLVAKY  29.7 nM
2. LPLDIQIFY  4.6 nM
3. YLPALKVEY  2.6 nM
4. HFLDRHLVF  1.6 nM
5. FYPELKLAY  0.2 nM

These sequences were tested against HLA-B*51:01 in the same assay as above. Settings: source organism: Homo sapiens.

In order of falling IC50:
1. YIIEREPLI  1790 nM
2. VALLVGEKV  144 nM
3. TPESKIRFV  84.8 nM
4. VPPLVPKVL  56.3 nM
5. IIYPTPKVV  38 nM
6. DAYPQRIKF  31 nM
7. DGYVVKETI  13.4 nM
8. DGLRDLPSI  12.6 nM
9. DAPLNIRSI  6.5 nM
10. DGLLRVLTV  0.2 nM
